Literature values as cited in publication PMC4465046.

Target: HIV-1 protease (Human immunodeficiency virus 1) (UniProt O93215)

In the case of HIV-1 protease (from UniProt O93215), the Kd is given as 6.8 nM.
